Numbering of substitutions follows the chain as printed. Numbers in names are those of the source.
B1: γ-tubulin (Tub4p) (natural protein, S. cerevisiae)
chain: MGGEIITLQAGQCGNHVGKFLWSQLAKEHAIGTDGLSQLPDSSTERDDDTKPFFRENSRNKFTPRAIMMDSEPSVIADVENTFRGFFDPRNTWVASDGASAGNSWANGYDIGTRNQDDILNKIDKEIDSTDNFEGFQLLHSVAGGTGSGLGSNLLEALCDRYPKKILTTYSVFPARSSEVVVQSYNTILALRRLIEDSDATVVFDNASLLNISGKVFRNPNIDLQHTNQLISTIISSVTNSIRFPSYMYSSMSSIYSTLIPSPELHFLSPSFTPFTSDYIHDDIAHKGHSSYDVMLDLLDPSNSLVSTAMNNPTYFNVYNTIIGNVEPRQISRAMTKLQQRIKFPSWSSSAMHVNIGRRSPYLPLQPNENEVSGMMLSNMSTVVNVFENACNTFDKVFAKGAFLNNYNVGDLFQSMQNVQDEFAESREVVQSLMEDYVAAEQDSYLDDVLVDDENMVGELEEDLDADGDHKLV
notes: Tub4p, S. cerevisiae γ-tubulin; the 453 a.a. built in the model are said to be 96% of the protein; source: pFastBac-Tub4p construct; purified as part of γTuSC, prepared essentially as described (Vinh et al., 2002; Lyon et al., 2016)
B2: Tub4p S58C/G288C (natural protein, S. cerevisiae)
chain: B1 chain with S58C, G288C
modifications: engineered cysteines oxidised to disulfides (overnight dialysis into 1 mM oxidized glutathione)
notes: Tub4p, S. cerevisiae γ-tubulin, with S58C and G288C; also called γ-tubulin engineered with disulfides; γ-tubulin of γTuSC^SS / γTuRC^SS; source: pFastBac-Tub4p^S58C/G288C construct (Kollman et al., 2015); purified in filaments prepared essentially as described (Kollman et al., 2010; Kollman et al., 2015)
B3: Spc97p (natural protein, S. cerevisiae)
chain: MEIKEVDDRAELLRYTNNIPLLGKLVNHQPLWSTNPKLKSFSLEKISAPDQRRVQEALVVKDLLNVLIGLEGTYIRYFNDYEPSDPETPIEFKIAKKMDPSFKTFSRRIVRYGKQYMILTRAYEKWSDTSFGMVLQRFAYEIRRFLEDVYLKTLVERLERDFNKVPNFSIRELEQIINETEVNKQMELLYNIYEEIFREIEERRTNQSSQEDFNNFMDSMKNESSLHLRLMVAFDTTVYPVPKGGAILKIFQQKILENLGDRSSVMFLKKLLNNISQDYCTMLYEWLTQGILNDPYQEFMTYDDLEGKTDNIFDTRDRAWDTQYFIRKDVLLRDCDSEEDKNLLFKMLRTGILLKVVRASLQIPTIPSNSSDITIQEINDFADLMEGSNLELYVDKCYSRANEIFLKLFFQGYDLINVLKHLQQIFLGYQSGHNVLKFLTKNMGELTKHYRNDNNANYDKLLQNFELERQSENPNNLMRQLLMIQFDTETLPQVLSHYLQIYPEVPENNSANDDSDPLMHANNFKNMNAILFDELSKERTGAYHGSNLELYTPKSAIYHLKFDINIPYPLNIIISRTCMIKYQIILRYQLVLQYHSRLLDETWMDLNKTPSWKYRGYSHTVKRRIVRATRVLHAKMNHFIKTIMEYFNQNVIDKEVYSLEKCYRNPTLAVAIQNELEGGLTNIMTNRCLSDLIPLQLQIFDIVYKFCKFIKSMRAKLCQLDPVLYEKHKSGMMKTLNEGYRTNNGGQEDVGYQEDAALELIQKLIEYISNASSIFRKCLINFTQELSTEKFDFYDSSSVDAAGIERVLYSIVPPRSASASSQR
notes: Spc97p, S. cerevisiae homologue of GCP2; the 712 a.a. built in the model are said to be 87% of the protein; also called GCP2 homologue; source: pFastBac-Spc97p construct; purified as part of γTuSC, prepared essentially as described (Vinh et al., 2002; Lyon et al., 2016)
B4: Spc110p^1-401-GST (domain or fragment, S. cerevisiae, UniProt P32380 1-401, looked up)
chain: MDEASHLPNGSLKNMEFTPVGFIKSKRNTTQTQVVSPTKVPNANNGDENEGPVKKRQRRSIDDTIDSTRLFSEASQFDDSFPEIKANIPPSPRSGNVDKSRKRNLIDDLKKDVPMSQPLKEQEVREHQMKKERFDRALESKLLGKRHITYANSDISNKELYINEIKSLKHEIKELRKEKNDTLNNYDTLEEETDDLKNRLQALEKELDAKNKIVNSRKVDDHSGCIEEREQMERKLAELERKLKTVKDQVLELENNSDVQSLKLRSKEDELKNLMNELNELKSNAEEKDTQLEFKKNELRKRTNELNELKIKSDEMDLQLKQKQNESKRLKDELNELETKFSENGSQSSAKENELKMLKNKIAELEEEISTKNSQLIAKEGKLASLMAQLTQLESKLNQRD
notes: Spc110p, S. cerevisiae, residues 1-401; also called Spc110^1-401-GST; Spc110^1-401; not shown: GST, C-terminal, kept
B5: Spc110p^1-220 (domain or fragment, S. cerevisiae, UniProt P32380 1-220, looked up)
chain: MDEASHLPNGSLKNMEFTPVGFIKSKRNTTQTQVVSPTKVPNANNGDENEGPVKKRQRRSIDDTIDSTRLFSEASQFDDSFPEIKANIPPSPRSGNVDKSRKRNLIDDLKKDVPMSQPLKEQEVREHQMKKERFDRALESKLLGKRHITYANSDISNKELYINEIKSLKHEIKELRKEKNDTLNNYDTLEEETDDLKNRLQALEKELDAKNKIVNSRKVD
notes: also called Spc110^1-220; N-terminal domain of Spc110p; source: pFastBac-GST-Spc110p^1-220 construct; purified in filaments with γTuSC, prepared essentially as described (Kollman et al., 2010; Kollman et al., 2015)

Key:
[1] = target: γTuSC (Saccharomyces cerevisiae) (UniProt P53378); settings: cited from earlier work
Spc97p [2] = target: B3; assay: cryo-EM structure; γTuRC^WT helical filaments of γTuSC with Spc110p^1-220 (open and closed classes); 40 mM HEPES pH 7.5, 2 mM MgCl2, 1 mM EGTA, 1 mM GDP, 100 mM KCl, 1 mM DTT, 2.5% glycerol; settings: both partners purified
Spc98p [3] = target: T1, Spc98p (S. cerevisiae, UniProt P53540 1-846); assay: as above; settings: both partners purified
T1 construct: Spc98p, S. cerevisiae homologue of GCP3; the 674 a.a. built in the model are said to be 80% of the protein; also called GCP3 homologue; source: pFastBac-Spc98p construct; purified as part of γTuSC, prepared essentially as described (Vinh et al., 2002; Lyon et al., 2016)
T1 sequence: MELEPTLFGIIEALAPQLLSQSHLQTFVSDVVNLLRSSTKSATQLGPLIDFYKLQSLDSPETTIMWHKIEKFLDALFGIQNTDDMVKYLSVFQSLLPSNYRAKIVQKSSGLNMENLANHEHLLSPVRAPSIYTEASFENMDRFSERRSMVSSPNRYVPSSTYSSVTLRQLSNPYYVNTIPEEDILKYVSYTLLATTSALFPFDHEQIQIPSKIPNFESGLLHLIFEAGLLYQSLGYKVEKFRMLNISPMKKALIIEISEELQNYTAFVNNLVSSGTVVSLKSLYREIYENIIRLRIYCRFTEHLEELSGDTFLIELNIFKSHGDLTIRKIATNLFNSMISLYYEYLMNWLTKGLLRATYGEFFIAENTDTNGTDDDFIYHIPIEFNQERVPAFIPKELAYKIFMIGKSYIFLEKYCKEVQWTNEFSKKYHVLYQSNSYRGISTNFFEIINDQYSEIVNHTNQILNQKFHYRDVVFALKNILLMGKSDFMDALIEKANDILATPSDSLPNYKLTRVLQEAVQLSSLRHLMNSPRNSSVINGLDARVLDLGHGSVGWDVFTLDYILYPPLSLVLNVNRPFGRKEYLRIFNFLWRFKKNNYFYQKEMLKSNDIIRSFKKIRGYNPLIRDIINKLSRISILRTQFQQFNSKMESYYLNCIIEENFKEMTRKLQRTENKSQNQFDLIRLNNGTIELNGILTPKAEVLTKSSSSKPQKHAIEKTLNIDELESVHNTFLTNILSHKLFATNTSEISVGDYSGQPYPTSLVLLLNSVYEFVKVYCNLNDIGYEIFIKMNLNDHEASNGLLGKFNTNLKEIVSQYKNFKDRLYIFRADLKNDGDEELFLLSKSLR

Spc97p [4] = target: B3; assay: cryo-EM structure; γTuRC^SS helical filaments (disulfide-trapped closed state) of γTuSC^SS with Spc110p^1-220; 40 mM HEPES pH 7.5, 2 mM MgCl2, 1 mM EGTA, 0.5 mM GTP, 100 mM KCl, 1 mM oxidized glutathione, 2.5% glycerol; settings: both partners purified
Spc98p [5] = target: T1, Spc98p; assay: as above; settings: both partners purified
Spc97p [6] = target: B3; assay: cross-linking; XL-MS; DSS (0.44 mM, 3 min, RT) or EDC (5.4 mM plus 2.7 mM Sulfo-NHS, 30 min, RT); 0.4 µM γTuSC and 0.8 µM Spc110; 40 mM HEPES pH 7.0, 150 mM KCl; settings: both partners purified
[7] = target: the molecule itself; assay: cryo-EM structure; γTuRC^WT helical filaments of γTuSC with Spc110p^1-220 (open and closed classes); 40 mM HEPES pH 7.5, 2 mM MgCl2, 1 mM EGTA, 1 mM GDP, 100 mM KCl, 1 mM DTT, 2.5% glycerol

Row | Molecule | binding result (Spc98p [3]) | binding result (Spc97p [4]) | binding result (Spc98p [5]) | further results
1 | γTuSC (from UniProt P53378) |  |  |  | Kd [1]: 2 µM
2 | B1 | binds |  |  | binding result (Spc97p [2]): binds
3 | B2 |  | binds | binds | 
4 | B3 | binds |  |  | 
5 | B4 |  |  |  | binding result (Spc97p [6]): binds
6 | B5 |  | binds | binds | binding result [7]: binds
